{"source": "paper PMC11602657", "about": "“Nap1 and Kap114 co-chaperone H2A-H2B and facilitate targeted histone release in the nucleus” (The Journal of Cell Biology, 2024)", "key": {"[1]": {"target": "the molecule itself", "experiment": "SEC-MALS; proteins alone or binary mixtures at the indicated molar ratios to 80 µM Kap114; Assay buffer without glycerol; Nap1 counted as dimer"}, "Kap114": {"target": "T1, Kap114 (S. cerevisiae, UniProt P53067 1-1004)", "T1 construct": "also called Sc Kap114; source: E. coli, expressed as GST-Kap114, purified (Glutathione Sepharose 4B, on-column TEV cleavage, SEC)", "T1 sequence": "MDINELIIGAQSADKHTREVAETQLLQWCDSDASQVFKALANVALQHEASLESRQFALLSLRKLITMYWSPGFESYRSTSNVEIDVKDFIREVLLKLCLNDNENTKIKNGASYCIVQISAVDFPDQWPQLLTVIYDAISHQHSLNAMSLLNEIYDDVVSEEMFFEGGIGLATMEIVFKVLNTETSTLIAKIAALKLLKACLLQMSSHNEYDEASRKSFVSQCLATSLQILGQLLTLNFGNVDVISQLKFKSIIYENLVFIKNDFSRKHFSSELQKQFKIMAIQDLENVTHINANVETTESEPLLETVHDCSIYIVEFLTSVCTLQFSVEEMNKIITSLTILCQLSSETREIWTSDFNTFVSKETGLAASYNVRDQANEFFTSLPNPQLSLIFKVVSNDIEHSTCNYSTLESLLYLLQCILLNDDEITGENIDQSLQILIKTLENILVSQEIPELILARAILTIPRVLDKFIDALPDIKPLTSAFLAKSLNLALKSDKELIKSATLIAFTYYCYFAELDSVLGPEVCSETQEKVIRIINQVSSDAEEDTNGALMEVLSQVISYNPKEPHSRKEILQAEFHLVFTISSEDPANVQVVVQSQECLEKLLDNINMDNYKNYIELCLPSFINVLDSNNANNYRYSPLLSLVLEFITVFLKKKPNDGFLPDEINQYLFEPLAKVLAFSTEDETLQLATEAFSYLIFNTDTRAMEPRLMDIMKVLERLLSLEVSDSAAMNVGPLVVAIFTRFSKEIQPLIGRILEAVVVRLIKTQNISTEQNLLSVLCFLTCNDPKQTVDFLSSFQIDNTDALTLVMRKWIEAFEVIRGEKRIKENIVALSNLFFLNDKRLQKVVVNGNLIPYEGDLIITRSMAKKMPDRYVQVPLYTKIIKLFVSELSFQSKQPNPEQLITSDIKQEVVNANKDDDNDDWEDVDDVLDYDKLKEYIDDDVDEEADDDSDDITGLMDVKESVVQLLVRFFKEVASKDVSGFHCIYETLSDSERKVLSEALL", "experiment": "SEC-MALS; proteins alone or binary mixtures at the indicated molar ratios to 80 µM Kap114; Assay buffer without glycerol; Nap1 counted as dimer", "conditions": "both partners purified"}, "[2]": {"target": "T2, MBP-Kap114 DDAA (D928A/D929A) (S. cerevisiae, UniProt P53067 1-1004, D928A | D929A)", "T2 construct": "Kap114, S. cerevisiae, h19loop mutant; source: E. coli BL21 Gold, purified; not shown: MBP, N-terminal, kept", "T2 sequence (looked up)": "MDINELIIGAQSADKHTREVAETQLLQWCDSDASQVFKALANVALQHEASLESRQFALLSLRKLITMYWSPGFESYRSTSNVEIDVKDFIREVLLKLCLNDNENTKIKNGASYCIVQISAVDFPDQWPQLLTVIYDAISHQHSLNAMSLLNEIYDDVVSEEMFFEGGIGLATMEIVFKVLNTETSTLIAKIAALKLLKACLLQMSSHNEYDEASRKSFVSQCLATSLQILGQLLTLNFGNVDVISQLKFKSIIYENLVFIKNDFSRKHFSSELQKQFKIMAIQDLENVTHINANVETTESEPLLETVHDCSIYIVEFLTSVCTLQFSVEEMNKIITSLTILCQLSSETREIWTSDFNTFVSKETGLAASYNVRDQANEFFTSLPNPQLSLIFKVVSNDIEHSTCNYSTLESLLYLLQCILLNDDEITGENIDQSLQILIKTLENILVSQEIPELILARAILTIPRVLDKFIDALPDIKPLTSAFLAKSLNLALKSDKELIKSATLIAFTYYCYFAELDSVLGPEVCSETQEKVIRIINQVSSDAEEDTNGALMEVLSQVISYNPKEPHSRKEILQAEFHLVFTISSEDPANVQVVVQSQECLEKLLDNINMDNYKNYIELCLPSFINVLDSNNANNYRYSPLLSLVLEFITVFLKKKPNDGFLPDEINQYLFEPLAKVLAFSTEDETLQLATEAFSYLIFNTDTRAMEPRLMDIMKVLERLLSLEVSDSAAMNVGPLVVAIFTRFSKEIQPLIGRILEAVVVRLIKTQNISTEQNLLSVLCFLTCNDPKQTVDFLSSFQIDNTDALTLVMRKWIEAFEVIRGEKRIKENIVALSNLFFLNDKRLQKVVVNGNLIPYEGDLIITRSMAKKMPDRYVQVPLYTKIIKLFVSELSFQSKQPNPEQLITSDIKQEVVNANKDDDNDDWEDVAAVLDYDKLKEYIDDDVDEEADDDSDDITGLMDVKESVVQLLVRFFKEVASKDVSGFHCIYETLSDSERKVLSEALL", "experiment": "pull-down; MBP-Kap114 (WT or mutant; or MBP alone) 1 µM immobilized on amylose resin, equimolar Nap1_(2) ± H2A-H2B (1 or 2 µM) ± Ran^GTP; Assay Buffer (20 mM HEPES pH 7.4, 150 mM NaCl, 2 mM MgCl2, 10% glycerol, 2 mM DTT), 30 min at 4°C; Coomassie-stained SDS-PAGE", "conditions": "both partners purified"}, "[3]": {"target": "T3, MBP-Kap114 YDAA (Y939A/D942A) (S. cerevisiae, UniProt P53067 1-1004, Y939A | D942A)", "T3 construct": "Kap114, S. cerevisiae, h19loop mutant; source: E. coli BL21 Gold, purified; not shown: MBP, N-terminal, kept", "T3 sequence (looked up)": "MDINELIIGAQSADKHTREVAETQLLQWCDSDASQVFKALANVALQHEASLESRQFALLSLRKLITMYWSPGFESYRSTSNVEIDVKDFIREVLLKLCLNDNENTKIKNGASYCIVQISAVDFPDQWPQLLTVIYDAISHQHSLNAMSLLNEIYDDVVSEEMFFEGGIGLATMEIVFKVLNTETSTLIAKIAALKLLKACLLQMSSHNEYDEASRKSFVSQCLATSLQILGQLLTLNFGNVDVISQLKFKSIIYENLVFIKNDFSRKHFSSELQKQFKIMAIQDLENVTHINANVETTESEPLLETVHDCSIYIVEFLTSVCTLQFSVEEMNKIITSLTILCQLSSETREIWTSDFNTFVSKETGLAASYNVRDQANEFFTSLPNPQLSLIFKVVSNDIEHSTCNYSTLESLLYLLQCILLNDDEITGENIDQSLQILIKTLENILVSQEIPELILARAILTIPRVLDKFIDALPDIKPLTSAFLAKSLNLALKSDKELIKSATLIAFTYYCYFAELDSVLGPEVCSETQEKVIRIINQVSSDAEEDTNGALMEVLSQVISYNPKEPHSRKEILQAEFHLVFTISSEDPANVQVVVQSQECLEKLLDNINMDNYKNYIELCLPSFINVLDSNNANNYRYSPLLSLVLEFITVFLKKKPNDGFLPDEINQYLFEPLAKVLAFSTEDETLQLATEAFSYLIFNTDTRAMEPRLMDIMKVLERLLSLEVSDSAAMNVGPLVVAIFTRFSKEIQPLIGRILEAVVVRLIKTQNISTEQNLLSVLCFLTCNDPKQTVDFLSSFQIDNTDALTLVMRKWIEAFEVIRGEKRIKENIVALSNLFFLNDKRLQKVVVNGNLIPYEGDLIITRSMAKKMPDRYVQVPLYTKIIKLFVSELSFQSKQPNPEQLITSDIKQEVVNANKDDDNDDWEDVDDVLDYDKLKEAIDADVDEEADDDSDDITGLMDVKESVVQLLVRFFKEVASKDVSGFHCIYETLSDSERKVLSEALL", "experiment": "pull-down; MBP-Kap114 (WT or mutant; or MBP alone) 1 µM immobilized on amylose resin, equimolar Nap1_(2) ± H2A-H2B (1 or 2 µM) ± Ran^GTP; Assay Buffer (20 mM HEPES pH 7.4, 150 mM NaCl, 2 mM MgCl2, 10% glycerol, 2 mM DTT), 30 min at 4°C; Coomassie-stained SDS-PAGE", "conditions": "both partners purified"}}, "note": "Where “and” joins values, the source holds several entries; their conditions need not be identical. Equal entries are not always repeated.", "data": [{"binder": "Nap1 FL (C200A, C249A, C272A) (natural protein, S. cerevisiae, UniProt P25293 1-417, looked up, Nap1 (nucleosome assembly protein 1), S. cerevisiae, full length (FL), with C200A, C249A, C272A for specific labeling on 414C; pHAT4 vector, gift from Sheena D'Arcy; Counted as a dimer (Nap1_(2)) in all molar ratios; alone a mixture of dimers and tetramers; also called Nap1_(2); Nap1_(2) FL; source: E. coli BL21 gold, purified (Ni-NTA, TEV cleavage, HiTrap Q, Superdex S200)) MSDPIRTKPKSSMQIDNAPTPHNTPASVLNPSYLKNGNPVRAQAQEQDDKIGTINEEDILANQPLLLQSIQDRLGSLVGQDSGYVGGLPKNVKEKLLSLKTLQSELFEVEKEFQVEMFELENKFLQKYKPIWEQRSRIISGQEQPKPEQIAKGQEIVESLNETELLVDEEEKAQNDSEEEQVKGIPSFWLTALENLPIVADTITDRDAEVLEYLQDIGLEYLTDGRPGFKLLFRFDSSANPFFTNDILAKTYFYQKELGYSGDFIYDHAEGAEISWKDNAHNVTVDLEMRKQRNKTTKQVRTIEKITPIESFFNFFDPPKIQNEDQDEELEEDLEERLALDYSIGEQLKDKLIPRAVDWFTGAALEFEFEEDEEEADEDEDEEEDDDHGLEDDDGESAEEQDDFAGRPEQAPECKQS", "values": [{"measurement": "stoichiometry N", "setting": "[1]", "result": "2 and 4"}, {"measurement": "stoichiometry N", "setting": "Kap114", "result": 1}, {"measurement": "binding result", "setting": "[2]", "result": "binds"}, {"measurement": "binding result", "setting": "[3]", "result": "binds"}]}]}
